For the experiment, the system named is citrated whole blood (CWB). Nature of the experiment: Interference testing for Rapidpoint ENOX test in citrated whole blood. It counts as biochemical. Conditions: for EFFECT on ENOX test: CWB; for sensitivity of the ENOX test to the agent: in vitro, citrated whole blood.

B1: Abciximab (antibody, chains of the INN, looked up, V domains shown)
VH: EVQLQQSGTVLARPGASVKMSCEASGYTFTNYWMHWVKQRPGQGLEWIGAIYPGNSDTSYIQKFKGKAKLTAVTSTTSVYMELSSLTNEDSAVYYCTLYDGYYVFAYWGQGTLVTVSA
VL: EIVLTQSPVTLSVTPGDSVSLSCRASRDISNNLHWFQQTSHESPRLLIKYASQSMSGIPSRFSGSGSGTDFTLSINSVETEDFGMYFCQQTNSWPYTFGGGTKLEIK
modifications: Fab
notes: antiplatelet agent tested as interferent
Consider B1, for which the “sensitivity of the ENOX test to the agent” value (“sensitivity of the ENOX test” for short) was “insensitive”. For the same molecule, the “EFFECT on ENOX test” value (0-3600 ng/ml) is listed as “No effect at 0-3600 ng/ml”.

B2: Alteplase (protein, UniProt P00750 36-562, looked up)
Tissue-type plasminogen …: SYQVICRDEKTQMIYQQHQSWLRPVLRSNRVEYCWCNSGRAQCHSVPVKSCSEPRCFNGGTCQQALYFSDFVCQCPEGFAGKCCEIDTRATCYEDQGISYRGTWSTAESGAECTNWNSSALAQKPYSGRRPDAIRLGLGNHNYCRNPDRDSKPWCYVFKAGKYSSEFCSTPACSEGNSDCYFGNGSAYRGTHSLTESGASCLPWNSMILIGKVYTAQNPSAQALGLGKHNYCRNPDGDAKPWCHVLKNRRLTWEYCDVPSCSTCGLRQYSQPQFRIKGGLFADIASHPWQAAIFAKHRRSPGERFLCGGILISSCWILSAAHCFQERFPPHHLTVILGRTYRVVPGEEEQKFEVEKYIVHKEFDDDTYDNDIALLQLKSDSSRCAQESSVVRTVCLPPADLQLPDWTECELSGYGKHEALSPFYSERLKEAHVRLYPSSRCTSQHLLNRTVTDNMLCAGDTRSGGPQANLHDACQGDSGGPLVCLNDGRMTLVGIISWGLGCGQKDVPGVYTKVTNYLDWIRDNMRP
modifications: alteplase
notes: fibrinolytic agent tested as interferent
On to B2, for which the “sensitivity of the ENOX test” value is “insensitive”. For the same molecule, the “EFFECT on ENOX test” value (1000-3200 ng/ml) is recorded as “No effect at 1000-3200 ng/ml”.

B3: Tenecteplase (protein, UniProt P00750 36-562, looked up, variant T103N N117Q K296A H297A R298A R299A)
Tissue-type plasminogen …: SYQVICRDEKTQMIYQQHQSWLRPVLRSNRVEYCWCNSGRAQCHSVPVKSCSEPRCFNGGTCQQALYFSDFVCQCPEGFAGKCCEIDTRATCYEDQGISYRGNWSTAESGAECTNWQSSALAQKPYSGRRPDAIRLGLGNHNYCRNPDRDSKPWCYVFKAGKYSSEFCSTPACSEGNSDCYFGNGSAYRGTHSLTESGASCLPWNSMILIGKVYTAQNPSAQALGLGKHNYCRNPDGDAKPWCHVLKNRRLTWEYCDVPSCSTCGLRQYSQPQFRIKGGLFADIASHPWQAAIFAAAAASPGERFLCGGILISSCWILSAAHCFQERFPPHHLTVILGRTYRVVPGEEEQKFEVEKYIVHKEFDDDTYDNDIALLQLKSDSSRCAQESSVVRTVCLPPADLQLPDWTECELSGYGKHEALSPFYSERLKEAHVRLYPSSRCTSQHLLNRTVTDNMLCAGDTRSGGPQANLHDACQGDSGGPLVCLNDGRMTLVGIISWGLGCGQKDVPGVYTKVTNYLDWIRDNMRP
modifications: tenecteplase
notes: as for B2
On to B3, for which the “sensitivity of the ENOX test” value is reported as “insensitive”. Further, the “EFFECT on ENOX test” value (0-10,000 ng/ml) was “No effect at 0-10,000 ng/ml”.
